This is an account of results in patent publication US20220195063A1 (BYONDIS B V, published 2022).

What is called EC50 is the concentration at which the effect is half-maximal. A high value points to a less potent agent.

In assay [1] the target is human SIRPαBIT (huSIRPαBIT), protein antigen (human) (UniProt P78324). Kind of assay: ELISA, antigen coated.
In assay [2] the target is human SIRPβ1v1 (huSIRPβ1v1) (human) (UniProt O00241). Kind of assay: ELISA, antigen coated.
The target of assay [3] is human SIRPαBIT expressed on cells (human) (UniProt P78324). In words: flow cytometry, U937 cells. In general terms: Flow cytometry measures light scatter and fluorescence of single cells or particles in a stream.
The target in assay [4] is T1, human SIRPα1 (huSIRPα1), protein antigen (human, UniProt P78324 31-370, limits assumed, biotinylated in the SPR assay).
T1 construct: Coated on the plate in ELISA, biotinylated and captured in SPR; also called v2
In words: ELISA, antigen coated. In general terms: An ELISA detects its analyte on a solid surface through an enzyme-linked reagent.

Assay [5] addresses T2, human SIRPβ1v2 (huSIRPβ1v2) (human, UniProt Q5TFQ8 30-371).
T2 construct: Coated on the plate in ELISA; Only the Ensembl protein number is printed; also called huSIRPß1v2
Kind of assay: ELISA, antigen coated.

In assay [6] the target is T3, cynomolgus SIRPα (cySIRPα), protein antigen (cynomolgus monkey, UniProt A0A2K5VYQ9 31-369).
T3 construct: Coated on the plate in ELISA
T3 sequence: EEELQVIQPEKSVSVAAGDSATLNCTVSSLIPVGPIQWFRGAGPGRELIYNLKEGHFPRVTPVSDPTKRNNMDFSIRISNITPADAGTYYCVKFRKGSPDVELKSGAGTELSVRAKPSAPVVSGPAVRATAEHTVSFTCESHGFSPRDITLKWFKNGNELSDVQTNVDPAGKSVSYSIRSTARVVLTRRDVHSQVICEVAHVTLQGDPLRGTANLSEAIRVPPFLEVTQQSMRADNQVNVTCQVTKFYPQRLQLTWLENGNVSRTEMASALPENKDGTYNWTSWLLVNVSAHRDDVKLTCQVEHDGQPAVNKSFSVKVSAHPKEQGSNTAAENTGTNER
In words: ELISA, antigen coated.

In a further assay the target is T4, human SIRPγ (huSIRPγ) (human, UniProt Q9P1W8 29-360, limits assumed, biotinylated in the SPR assay).
T4 construct: Coated on the plate in ELISA, biotinylated and captured in SPR
Kind of assay: ELISA, antigen coated; ELISA (Table 2); finite EC50, below the 100,000 ng/ml cap. The protocol:
ELISA assay: Solutions of huSIRPα₁, huSIRPαBIT, huSIRPβ₁ᵥ₁, huSIRPβ₁ᵥ₂, huSIRPγ and cySIRPα in phosphate buffered saline (PBS) were each added to a multiple well black polystyrene plate for ELISA and allowed to adhere for 1 h at RT. Unbound protein was removed with three washing steps using standard washing buffer. Subsequently, blocking buffer was added to the wells. After 1 h incubation at RT, the wells were washed three times with standard washing buffer. The antibodies in buffer at various concentrations were added to the wells and incubated at RT for 1 h. Unbound antibodies were removed with three washing steps using standard washing buffer. Goat anti human IgG (Fab′)₂:horse radish peroxidase (HRP) in buffer was added to the wells and incubated at RT for 1 h. 3,3′,5,5′-Tetramethylbenzidine (TMB) was added and after sufficient colour development HCl was added. Absorbance was read at 450 nm/620 nm.

T1 sequence (P78324 other isoform, or with tags, fused parts or gaps limits assumed): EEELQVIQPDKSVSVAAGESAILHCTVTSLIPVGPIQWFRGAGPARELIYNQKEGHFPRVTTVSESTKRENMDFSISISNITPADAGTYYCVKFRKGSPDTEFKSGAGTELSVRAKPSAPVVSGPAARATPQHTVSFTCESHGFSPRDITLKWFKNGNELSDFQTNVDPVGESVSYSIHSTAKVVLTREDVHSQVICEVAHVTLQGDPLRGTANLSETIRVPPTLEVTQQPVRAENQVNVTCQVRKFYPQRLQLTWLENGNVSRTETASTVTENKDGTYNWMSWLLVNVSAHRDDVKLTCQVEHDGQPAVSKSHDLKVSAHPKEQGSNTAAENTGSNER
Sequence of human SIRPαBIT expressed on cells (human) (P78324 31-504): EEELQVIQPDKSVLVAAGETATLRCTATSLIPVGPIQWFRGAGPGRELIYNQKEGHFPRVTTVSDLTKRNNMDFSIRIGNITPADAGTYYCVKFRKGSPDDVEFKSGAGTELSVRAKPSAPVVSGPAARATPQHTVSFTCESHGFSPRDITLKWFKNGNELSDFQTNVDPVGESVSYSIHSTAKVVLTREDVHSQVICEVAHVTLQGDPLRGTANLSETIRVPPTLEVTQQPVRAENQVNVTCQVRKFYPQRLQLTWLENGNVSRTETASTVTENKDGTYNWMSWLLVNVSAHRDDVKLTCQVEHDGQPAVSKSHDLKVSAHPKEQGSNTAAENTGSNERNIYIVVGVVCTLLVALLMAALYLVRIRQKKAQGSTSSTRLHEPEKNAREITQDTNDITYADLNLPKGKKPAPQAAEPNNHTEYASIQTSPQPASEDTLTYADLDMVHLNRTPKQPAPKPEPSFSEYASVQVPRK
Sequence of human SIRPαBIT (huSIRPαBIT), protein antigen (human) (P78324 31-370): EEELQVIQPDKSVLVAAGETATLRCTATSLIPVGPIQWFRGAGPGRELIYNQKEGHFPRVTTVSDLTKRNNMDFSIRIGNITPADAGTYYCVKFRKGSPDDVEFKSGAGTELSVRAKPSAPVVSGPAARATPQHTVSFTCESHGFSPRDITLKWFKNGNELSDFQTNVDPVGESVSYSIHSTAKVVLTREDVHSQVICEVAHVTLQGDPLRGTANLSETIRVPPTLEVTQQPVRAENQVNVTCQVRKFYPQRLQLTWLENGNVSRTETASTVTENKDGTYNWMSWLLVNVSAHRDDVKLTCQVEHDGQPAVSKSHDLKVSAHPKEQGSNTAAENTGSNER
T4 sequence (Q9P1W8 29-360 limits assumed): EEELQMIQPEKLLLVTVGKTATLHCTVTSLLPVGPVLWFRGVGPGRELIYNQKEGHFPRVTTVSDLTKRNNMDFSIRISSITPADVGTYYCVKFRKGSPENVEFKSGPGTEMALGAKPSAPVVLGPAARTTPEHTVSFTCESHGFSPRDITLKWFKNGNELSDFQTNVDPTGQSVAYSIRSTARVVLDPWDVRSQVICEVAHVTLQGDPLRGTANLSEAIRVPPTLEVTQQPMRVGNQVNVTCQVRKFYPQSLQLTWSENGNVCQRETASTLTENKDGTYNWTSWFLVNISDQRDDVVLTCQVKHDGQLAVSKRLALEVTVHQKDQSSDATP
Sequence of human SIRPβ1v1 (huSIRPβ1v1) (human) (O00241 30-371): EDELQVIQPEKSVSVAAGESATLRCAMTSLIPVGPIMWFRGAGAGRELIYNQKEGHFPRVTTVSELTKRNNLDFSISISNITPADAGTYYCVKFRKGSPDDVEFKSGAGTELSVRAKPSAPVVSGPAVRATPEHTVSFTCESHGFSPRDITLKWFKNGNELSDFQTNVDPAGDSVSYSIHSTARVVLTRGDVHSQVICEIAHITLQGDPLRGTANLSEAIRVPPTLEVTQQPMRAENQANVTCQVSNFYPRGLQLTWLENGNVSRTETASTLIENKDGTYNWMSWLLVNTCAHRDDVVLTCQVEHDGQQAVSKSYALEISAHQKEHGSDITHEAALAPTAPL
T2 sequence (Q5TFQ8 30-371 limits assumed): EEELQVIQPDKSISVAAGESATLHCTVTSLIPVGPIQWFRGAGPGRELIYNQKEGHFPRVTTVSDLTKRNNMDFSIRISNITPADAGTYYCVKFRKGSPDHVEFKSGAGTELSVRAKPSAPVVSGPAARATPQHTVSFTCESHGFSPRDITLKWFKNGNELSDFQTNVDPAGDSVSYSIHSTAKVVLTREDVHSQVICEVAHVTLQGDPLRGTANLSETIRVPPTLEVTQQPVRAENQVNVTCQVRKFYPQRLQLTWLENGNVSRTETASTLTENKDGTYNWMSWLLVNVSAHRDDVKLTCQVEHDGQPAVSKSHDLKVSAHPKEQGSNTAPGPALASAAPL

B1: anti-SIRPα antibody 3 (antibody, human IgG1, kappa, L234A L235A, V domains shown)
VH: QSVEESGGRLVTPGTPLTLACTVSGFSLISYYISWVRQAPEKGLEYIGIINIGGGASYASWAKGRFTISKTSTTVDLKITSPTPEDTATYFCAMSYGMDTGAFNIWGPGTLVTVSL
VL: AQVLTQTPASVSAAVGGTVTISCQSSESVYKNNFLSWYQQKPGKPPKLLIYGASTLASGVPSRFKGSGSGTQFTLTISDLESDDAATYFCQGGYRTDIYPFGGGTEVVVKR
notes: Rabbit variable regions on human IgG1 LALA / kappa
For the molecule B1, the EC50 in assay [1] was 0.024 µg/mL; in assay [2] it was above 100 µg/mL; in assay [3], 0.22 µg/mL; in assay [4], 0.015 µg/mL; in assay [5] it was 0.089 µg/mL; in assay [6] it was 0.036 µg/mL. In the assay with human SIRPγ (huSIRPγ), this molecule gave an EC50 of 5.22 µg/mL.
